# Reference: the supplement of paper PMC9112550, “Optimization of the antimicrobial peptide Bac7 by deep mutational scanning” (BMC Biology, 2022)
# System: Escherichia coli TOP10
# Test: shrunken log2 fold change of peptide-encoding DNA abundance (4.5 h post-induction vs induction); higher = less antimicrobial activity (less host growth inhibition)
# Conditions: time post-induction: 4.5 h; library: site-saturation at positions 5, 18, 19, 20
# 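Further: peptides expressed intracellularly from a pBAD plasmid library in pooled LB shake-flask culture, induced with 0.3% L-arabinose, DNA abundance read by NGS, three biological replicates, DESeq2 with apeglm shrinkage.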
row,Sequence,shrunken log2 fold change
1,RRIRVRPPRLPRPRPRPFRFPRP,0.0201
2,RRIRTRPPRLPRPRPRPTSQPRP,-0.00402
3,RRIRIRPPRLPRPRPRPDFQPRP,-0.125
4,RRIRLRPPRLPRPRPRPVDEPRP,-0.0573
5,RRIRPRPPRLPRPRPRPIPWPRP,0.00327
6,RRIRPRPPRLPRPRPRPMAAPRP,0.208
7,RRIRIRPPRLPRPRPRPGMSPRP,-0.15
8,RRIRVRPPRLPRPRPRPVTPPRP,0.214
9,RRIRQRPPRLPRPRPRPCILPRP,-0.458
10,RRIRPRPPRLPRPRPRPPCGPRP,0.254
11,RRIRMRPPRLPRPRPRPINVPRP,-0.0528
12,RRIRDRPPRLPRPRPRPGYWPRP,0.242
13,RRIRMRPPRLPRPRPRPMKPPRP,-0.00107
14,RRIRERPPRLPRPRPRPRMLPRP,-0.0942
15,RRIRMRPPRLPRPRPRPPMLPRP,0.382
16,RRIRDRPPRLPRPRPRPVILPRP,-0.146
17,RRIRTRPPRLPRPRPRPYFPPRP,-0.995
18,RRIRMRPPRLPRPRPRPRILPRP,0.0948
19,RRIRPRPPRLPRPRPRPCVFPRP,-0.164
20,RRIRVRPPRLPRPRPRPFCAPRP,0.00539
21,RRIRTRPPRLPRPRPRPLISPRP,-0.145
22,RRIRNRPPRLPRPRPRPYLCPRP,-0.0174
23,RRIRIRPPRLPRPRPRPTLSPRP,-0.0751
24,RRIRARPPRLPRPRPRPWPLPRP,-0.0297
25,RRIRRRPPRLPRPRPRPLVGPRP,0.239

row,Sequence,shrunken log2 fold change
1,RRIRGRPPRLPRPRPRPHRKPRP,0.101
2,RRIRYRPPRLPRPRPRPYYMPRP,-1.06
3,RRIRHRPPRLPRPRPRPGWKPRP,0.0976
4,RRIRMRPPRLPRPRPRPMTYPRP,0.157
5,RRIRVRPPRLPRPRPRPVARPRP,0.223
6,RRIRSRPPRLPRPRPRPWYHPRP,-0.45
7,RRIRIRPPRLPRPRPRPKHLPRP,-0.137
8,RRIRERPPRLPRPRPRPDSDPRP,-0.0703
9,RRIRPRPPRLPRPRPRPPIDPRP,0.216
10,RRIRYRPPRLPRPRPRPQKKPRP,0.0261
11,RRIRHRPPRLPRPRPRPCHQPRP,-0.601
12,RRIRTRPPRLPRPRPRPWGKPRP,0.201
13,RRIRQRPPRLPRPRPRPCKSPRP,0.00854
14,RRIRSRPPRLPRPRPRPQMHPRP,-0.351
15,RRIRRRPPRLPRPRPRPQHFPRP,0.256
16,RRIRQRPPRLPRPRPRPWSWPRP,-0.0208
17,RRIRDRPPRLPRPRPRPFFPPRP,0.0715
18,RRIRFRPPRLPRPRPRPYYGPRP,-0.0202
19,RRIRSRPPRLPRPRPRPVCHPRP,-0.388
20,RRIRHRPPRLPRPRPRPDFNPRP,-0.607
21,RRIRVRPPRLPRPRPRPQCQPRP,0.148
22,RRIRNRPPRLPRPRPRPSNFPRP,-0.31
23,RRIRVRPPRLPRPRPRPIQAPRP,-0.0344
24,RRIRMRPPRLPRPRPRPDSPPRP,0.0492
25,RRIRIRPPRLPRPRPRPKIIPRP,-0.468

row,Sequence,shrunken log2 fold change
1,RRIRIRPPRLPRPRPRPTLNPRP,-0.181
2,RRIRRRPPRLPRPRPRPYVNPRP,-0.0793
3,RRIRLRPPRLPRPRPRPAHIPRP,0.0196
4,RRIRARPPRLPRPRPRPYQKPRP,-0.0277
5,RRIRFRPPRLPRPRPRPFCQPRP,-0.317
6,RRIRERPPRLPRPRPRPCYCPRP,-0.539
7,RRIRTRPPRLPRPRPRPESPPRP,0.305
8,RRIRERPPRLPRPRPRPINMPRP,-0.261
9,RRIRRRPPRLPRPRPRPILQPRP,1.83
10,RRIRERPPRLPRPRPRPLFRPRP,1.09
11,RRIRSRPPRLPRPRPRPQHQPRP,-0.0399
12,RRIRERPPRLPRPRPRPWVLPRP,-0.0134
13,RRIRFRPPRLPRPRPRPSMYPRP,-0.432
14,RRIRHRPPRLPRPRPRPLYWPRP,-0.276
15,RRIRPRPPRLPRPRPRPWYRPRP,-0.601
16,RRIRKRPPRLPRPRPRPKFYPRP,-0.0589
17,RRIRPRPPRLPRPRPRPQRIPRP,0.0114
18,RRIRNRPPRLPRPRPRPLQDPRP,-0.247
19,RRIRFRPPRLPRPRPRPYYAPRP,-1.21
20,RRIRRRPPRLPRPRPRPQKQPRP,0.338
21,RRIRLRPPRLPRPRPRPEWEPRP,0.0256
22,RRIRDRPPRLPRPRPRPRHLPRP,-0.199
23,RRIRCRPPRLPRPRPRPFRVPRP,-0.32
24,RRIRKRPPRLPRPRPRPECWPRP,0.744
25,RRIRERPPRLPRPRPRPPGIPRP,-0.0106
